From publication PMC5125647, “Multivalent Interactions of Human Primary Amine Oxidase with the V and C2_(2) Domains of Sialic Acid-Binding Immunoglobulin-Like Lectin-9 Regulate Its Binding and Amine Oxidase Activity” (PLoS ONE, 2016) come the findings set out here.

In data set [1] the target is T1, human primary amine oxidase (hAOC3) (human, UniProt Q16853 1-763, topaquinone (TPQ) cofactor, modified from Tyr471; N-glycans attached to N137, N232, N294, N592, N618 and N666, with sialic acids).
T1 construct: human primary amine oxidase (AOC3, VAP-1); In the functional assays hAOC3 stood on live CHO-hAOC3 cells or in CHO-hAOC3 lysate; also called vascular adhesion protein-1; VAP-1
T1 sequence: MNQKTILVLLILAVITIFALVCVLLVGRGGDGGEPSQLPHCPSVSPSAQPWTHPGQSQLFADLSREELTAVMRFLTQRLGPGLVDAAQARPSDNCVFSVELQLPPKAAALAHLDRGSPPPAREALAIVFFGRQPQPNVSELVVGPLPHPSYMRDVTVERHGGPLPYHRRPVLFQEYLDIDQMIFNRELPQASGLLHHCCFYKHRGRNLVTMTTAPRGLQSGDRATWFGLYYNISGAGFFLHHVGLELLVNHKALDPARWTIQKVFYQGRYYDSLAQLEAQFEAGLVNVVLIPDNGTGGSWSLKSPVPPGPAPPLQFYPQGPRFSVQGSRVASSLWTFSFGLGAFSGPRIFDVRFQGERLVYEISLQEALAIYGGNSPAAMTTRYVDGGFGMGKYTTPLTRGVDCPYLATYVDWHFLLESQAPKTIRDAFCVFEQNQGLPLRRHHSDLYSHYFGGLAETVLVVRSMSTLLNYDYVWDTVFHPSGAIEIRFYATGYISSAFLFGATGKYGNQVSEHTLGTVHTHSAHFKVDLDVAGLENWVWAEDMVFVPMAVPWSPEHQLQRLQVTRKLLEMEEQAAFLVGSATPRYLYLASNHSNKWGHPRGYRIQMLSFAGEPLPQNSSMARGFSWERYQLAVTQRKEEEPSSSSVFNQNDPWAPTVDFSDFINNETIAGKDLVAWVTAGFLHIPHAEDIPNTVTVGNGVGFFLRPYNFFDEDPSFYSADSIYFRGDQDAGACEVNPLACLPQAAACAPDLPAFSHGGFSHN
The experiment in a line: SPR; hAOC3 immobilised; one concentration (0.5 uM) of each Siglec-9 protein; relative binding normalised to the first control condition. Particulars: both partners purified.

In data set [2] the target is T1, human primary amine oxidase (hAOC3). The experiment in a line: cell-based or functional assay.
Data set [3] concerns the molecule itself. The data set can be described thus: SEC; Superdex 200 10/300 GL, 20 mM HEPES pH 7.4, 150 mM NaCl; size from the retention time against standard proteins.
Data set [4] deals with T1, human primary amine oxidase (hAOC3). The data set can be described thus: SPR; hAOC3 immobilised; five to seven concentrations of Siglec-9-EC, R284S or R290S; kon and koff determined separately for every curve with Biaeval, Kd as their ratio; average without the highest and lowest value. Particulars: both partners purified.
Data set [5] shares this target. The data set is described as above. Particulars: both partners purified. This is another data set of the same source.
Data set [6] shares this target. The data set can be described thus: SPR; BiacoreX; hAOC3 amine-coupled to a CM5 chip (10 000 RU); 20 ul of 0.3-31 uM Siglec-9-EC injected at 25 C; running buffer HBS (10 mM HEPES, 150 mM NaCl, pH 7.4) with 0.005% Surfactant-P20; apparent Kd from responses at the end of injection against concentration, steady state and one-to-one model assumed, non-linear regression (GraphPad); two protein preparations. Particulars: both partners purified.

Where a chain is given by its changes, count along the chain named. Numbers in names are those of the source.

B1: Siglec-9-ΔV (C2_(12); residues 145-348) (domain or fragment, UniProt Q9Y336 145-348, looked up)
chain: RPNILIPGTLESGCPQNLTCSVPWACEQGTPPMISWIGTSVSPLDPSTTRSSVLTLIPQPQDHGTSLTCQVTFPGASVTTNKTVHLNVSYPPQNLTMTVFQGDGTVSTVLGNGSSLSLPEGQSLRLVCAVDAVDSNPPARLSLSWRGLTLCPSQPSNPGVLELPWVHLRDAAEFTCRAQNPLGSQQVYLNVSLQSKATSGVTQG
notes: Siglec-9, UniProtKB Q9Y336, C2_(1) and C2_(2) domains without the V domain, residues 145-348; The construct has a secretion signal for insect cell production before the tags; also called Siglec-9-EC-ΔV; source: baculovirus, Tn5 (High Five) insect cells, secreted into the medium, purified (Ni2+ resin, Superdex 200 gel filtration)
Consider B1, for which, in data set [1], the “binding relative to WT” value was less than 10%.

B2: Siglec-9-EC (extracellular region of sialic acid-binding immunoglobulin-like lectin-9, V-C2_(12); residues 26-348) (domain or fragment, UniProt Q9Y336 26-348, looked up)
chain: QSSVTVQEGLCVHVPCSFSYPSHGWIYPGPVVHGYWFREGANTDQDAPVATNNPARAVWEETRDRFHLLGDPHTKNCTLSIRDARRSDAGRYFFRMEKGSIKWNYKHHRLSVNVTALTHRPNILIPGTLESGCPQNLTCSVPWACEQGTPPMISWIGTSVSPLDPSTTRSSVLTLIPQPQDHGTSLTCQVTFPGASVTTNKTVHLNVSYPPQNLTMTVFQGDGTVSTVLGNGSSLSLPEGQSLRLVCAVDAVDSNPPARLSLSWRGLTLCPSQPSNPGVLELPWVHLRDAAEFTCRAQNPLGSQQVYLNVSLQSKATSGVTQG
notes: Siglec-9, UniProtKB Q9Y336, extracellular region with the V, C2_(1) and C2_(2) domains, residues 26-348; The construct has a secretion signal for insect cell production before the tags; The His tag is called cleavable, but no cleavage is described; Dimer by SEC retention (85 kDa); Insect-cell glycosylation; eight putative N-glycosylation sites; Cloning details are in S1 Text; also called WT; …
In the case of B2, in data set [2], the “amine oxidase activity of intact CHO-hAOC3 cells on [7-14C]benzylamine with 5 uM Siglec-9-EC added before the substrate (a similar increase with 1 uM in Fig 7C)” value amounted to 2 fold. The “stoichiometry N” value in data set [3] stood at 2. In addition, the “maximal binding at the highest concentration” value (“maximal binding” for short) in data set [4] was 3120 RU. Moreover, in data set [5], the Kd was determined as 1.04 ± 0.87 µM, the koff turned out to be 0.00691 s⁻¹ and the kon came out at 11200 M⁻¹ s⁻¹. Also, the Kd in data set [6] came out at 4.6 ± 0.93 µM.

B3: Siglec-9-EC/R284S (domain or fragment, UniProt Q9Y336 26-348, looked up)
chain: B2 chain with R259S
notes: Siglec-9, UniProtKB Q9Y336, extracellular region, residues 26-348, with R284S in the C2_(2) domain; Made from the Siglec-9-EC production vector by site-directed mutagenesis; also called R284S mutant; source: baculovirus, Tn5 (High Five) insect cells, secreted into the medium, purified (Ni2+ resin, Superdex 200 gel filtration)
B3: the “maximal binding” value in data set [4] was 1130 RU. Besides, in data set [5], the Kd is 0.14 µM, the koff came out at 0.00373 s⁻¹ and the kon was determined as 32100 M⁻¹ s⁻¹.

B4: Siglec-9-EC/R290S (domain or fragment, UniProt Q9Y336 26-348, looked up)
chain: B2 chain with R265S
notes: Siglec-9, UniProtKB Q9Y336, extracellular region, residues 26-348, with R290S in the C2_(2) domain; Made from the Siglec-9-EC production vector by site-directed mutagenesis; also called R290S mutant; source: baculovirus, Tn5 (High Five) insect cells, secreted into the medium, purified (Ni2+ resin, Superdex 200 gel filtration)
In the case of B4, the “maximal binding” value in data set [4] amounted to 1760 RU. In addition, in data set [5], the Kd worked out at 0.53 ± 0.5 µM, the koff turned out to be 0.0031 s⁻¹ and the kon was 11000 M⁻¹ s⁻¹.
